Measured values from PMC4943861 (ACS chemical biology, 2015).
Blank lines part the entries; values can stand above or below the molecule they belong to.

Target: activation loop-phosphorylated ERK2 (Homo sapiens, UniProt P28482)
Assay: In vitro activity assay against activation loop-phosphorylated ERK2
Format: biochemical
Conditions: read-out: IC50 against ERK2, triplicate

Chain of activation loop-phosphorylated ERK2 (P28482 whole entry): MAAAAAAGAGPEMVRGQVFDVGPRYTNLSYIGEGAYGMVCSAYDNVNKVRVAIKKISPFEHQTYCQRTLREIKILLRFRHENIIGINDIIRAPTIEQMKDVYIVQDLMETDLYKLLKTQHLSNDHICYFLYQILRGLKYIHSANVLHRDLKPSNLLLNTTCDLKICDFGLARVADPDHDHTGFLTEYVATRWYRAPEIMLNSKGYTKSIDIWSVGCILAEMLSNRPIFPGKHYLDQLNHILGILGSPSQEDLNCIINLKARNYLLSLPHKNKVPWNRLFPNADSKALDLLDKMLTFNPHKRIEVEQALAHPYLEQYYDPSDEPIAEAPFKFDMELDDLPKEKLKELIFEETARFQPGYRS

- IC50: 3900 nM
B1: SNAPtag-4: monovalent conjugate of 4 to SNAPtag (protein)
chain: GPGSDKDCEMKRTTLDSPLGKLELSGCEQGLHEIIFLGKGTSAADAVEVPAPAAVLGGPEPLMQATAWLNAYFHQPEAIEEFPVPALHHPVFQQESFTRQVLWKLLKVVKFGEVISYSHLAALAGNPAATAAVKTALSGNPVPILIPCHRVVQGDLDVGGYEGGLAVKEWLLAHEGHRLGKR
modifications: SNAPtag is engineered

- IC50: 0.8 nM
B2: SNAP(pE59)-4: bivalent inhibitor of activation loop-phosphorylated ERK2: SNAP(pE59) labeled with 4 (protein)
chain: GPGSDKDCEMKRTTLDSPLGKLELSGCEQGLHEIIFLGKGTSAADAVEVPAPAAVLGGPEPLMQATAWLNAYFHQPEAIEEFPVPALHHPVFQQESFTRQVLWKLLKVVKFGEVISYSHLAALAGNPAATAAVKTALSGNPVPILIPCHRVVQGDLDVGGYEGGLAVKEWLLAHEGHRLGKRDLGKKLLEAARAGQDDEVRILMANGADVNALDEDGLTPLHLAAQLGHLEIVEVLLKYGADVNAEDNFGITPLHLAAIRGHLEIVEVLLKHGADVNAQDKFGKTAFDISIDNGNEDLAEILQKLN
